Like-named read-outs stand apart in the source and are kept apart here. Each block holds one binder with its values, some of them ahead of it.
Experiments:
4H953-AA = target: T1, 4H953-AA; assay: two-hybrid library CCmax; conditions: mean of both orientations;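 also: natural log of median RNA to DNA barcode read ratio; higher means stronger binding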
T1 chain: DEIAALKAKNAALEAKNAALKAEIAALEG

4H429-AA = target: T2, 4H429-AA; assay: two-hybrid library CCmax; conditions: mean of both orientations;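 also: natural log of median RNA to DNA barcode read ratio; higher means stronger binding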
T2 chain: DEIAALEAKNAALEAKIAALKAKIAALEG

4H3606-AA = target: T3, 4H3606-AA; assay: two-hybrid library CCmax; conditions: mean of both orientations;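 also: natural log of median RNA to DNA barcode read ratio; higher means stronger binding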
T3 chain: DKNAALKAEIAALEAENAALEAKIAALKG

4H568-AA = target: T4, 4H568-AA; assay: two-hybrid library CCmax; conditions: mean of both orientations;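 also: natural log of median RNA to DNA barcode read ratio; higher means stronger binding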
T4 chain: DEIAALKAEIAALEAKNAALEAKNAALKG

4H3354-AA = target: T5, 4H3354-AA; assay: two-hybrid library CCmax;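 also: natural log of median RNA to DNA barcode read ratio; higher means stronger binding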
T5 chain: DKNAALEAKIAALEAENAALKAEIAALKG

4H717-AA = target: T6, 4H717-AA; assay: two-hybrid library CCmax; conditions: mean of both orientations;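 also: natural log of median RNA to DNA barcode read ratio; higher means stronger binding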
T6 chain: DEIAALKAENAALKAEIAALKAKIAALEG

4H3782-AA = target: T7, 4H3782-AA; assay: two-hybrid library CCmax; conditions: mean of both orientations
T7 chain: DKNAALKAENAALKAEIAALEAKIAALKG

4H3655-AA = target: T8, 4H3655-AA; assay: two-hybrid library CCmax; conditions: mean of both orientations
T8 chain: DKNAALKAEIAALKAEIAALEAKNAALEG

4H993-AA = target: T9, 4H993-AA; assay: two-hybrid library CCmax; conditions: mean of both orientations
T9 chain: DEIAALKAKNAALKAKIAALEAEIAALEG

4H317-AA = target: T10, 4H317-AA; assay: two-hybrid library CCmax; conditions: mean of both orientations
T10 chain: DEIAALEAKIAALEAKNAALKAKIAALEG

4H687-AA = target: T11, 4H687-AA; assay: two-hybrid library CCmax; conditions: mean of both orientations
T11 chain: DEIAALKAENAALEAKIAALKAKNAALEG

4H881-AA = target: T12, 4H881-AA; assay: two-hybrid library CCmax; conditions: mean of both orientations
T12 chain: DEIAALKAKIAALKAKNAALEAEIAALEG

4H967-AA = target: T13, 4H967-AA; assay: two-hybrid library CCmax; conditions: mean of both orientations
T13 chain: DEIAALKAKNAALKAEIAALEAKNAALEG

4H794-AA = target: T14, 4H794-AA; assay: two-hybrid library CCmax; conditions: mean of both orientations
T14 chain: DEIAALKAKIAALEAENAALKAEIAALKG

4H678-AA = target: T15, 4H678-AA; assay: two-hybrid library CCmax; conditions: mean of both orientations
T15 chain: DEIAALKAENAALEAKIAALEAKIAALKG

4H454-AA = target: T16, 4H454-AA; assay: two-hybrid library CCmax; conditions: mean of both orientations
T16 chain: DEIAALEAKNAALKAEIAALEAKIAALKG

4H3627-AA = target: T17, 4H3627-AA; assay: two-hybrid library CCmax; conditions: mean of both orientations
T17 chain: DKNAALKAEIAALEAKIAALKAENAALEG

4H4001-AA = target: T18, 4H4001-AA; assay: two-hybrid library CCmax; conditions: mean of both orientations
T18 chain: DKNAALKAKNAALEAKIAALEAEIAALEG

4H883-AA = target: T19, 4H883-AA; assay: two-hybrid library CCmax; conditions: mean of both orientations
T19 chain: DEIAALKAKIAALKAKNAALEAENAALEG

4H335-AA = target: T20, 4H335-AA; assay: two-hybrid library CCmax; conditions: mean of both orientations
T20 chain: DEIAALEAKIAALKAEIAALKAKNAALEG

4H605-AA = target: T21, 4H605-AA; assay: two-hybrid library CCmax; conditions: mean of both orientations
T21 chain: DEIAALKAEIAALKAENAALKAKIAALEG

4H48-AA = target: T22, 4H48-AA; assay: two-hybrid library CCmax; conditions: mean of both orientations
T22 chain: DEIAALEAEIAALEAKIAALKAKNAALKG

4H918-AA = target: T23, 4H918-AA; assay: two-hybrid library CCmax; conditions: mean of both orientations
T23 chain: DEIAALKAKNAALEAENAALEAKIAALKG

4H3343-AA = target: T24, 4H3343-AA; assay: two-hybrid library CCmax; conditions: mean of both orientations
T24 chain: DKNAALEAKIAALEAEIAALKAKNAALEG

4H780-AA = target: T25, 4H780-AA; assay: two-hybrid library CCmax; conditions: mean of both orientations
T25 chain: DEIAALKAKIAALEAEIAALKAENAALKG

4H906-AA = target: T26, 4H906-AA; assay: two-hybrid library CCmax; conditions: mean of both orientations
T26 chain: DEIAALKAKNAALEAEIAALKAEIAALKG

4H3427-AA = target: T27, 4H3427-AA; assay: two-hybrid library CCmax; conditions: mean of both orientations
T27 chain: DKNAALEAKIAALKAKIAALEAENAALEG

4H3921-AA = target: T28, 4H3921-AA; assay: two-hybrid library CCmax; conditions: mean of both orientations
T28 chain: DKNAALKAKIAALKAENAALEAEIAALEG

4H342-AA = target: T29, 4H342-AA; assay: two-hybrid library CCmax; conditions: mean of both orientations
T29 chain: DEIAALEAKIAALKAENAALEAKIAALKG

4H3112-AA = target: T30, 4H3112-AA; assay: two-hybrid library CCmax
T30 chain: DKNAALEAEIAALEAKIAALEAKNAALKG

4H797-AA = target: T31, 4H797-AA; assay: two-hybrid library CCmax; conditions: mean of both orientations
T31 chain: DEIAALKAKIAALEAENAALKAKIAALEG

4H3855-AA = target: T32, 4H3855-AA; assay: two-hybrid library CCmax; conditions: mean of both orientations
T32 chain: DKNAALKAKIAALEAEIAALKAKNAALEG

4H3844-AA = target: T33, 4H3844-AA; assay: two-hybrid library CCmax; conditions: mean of both orientations
T33 chain: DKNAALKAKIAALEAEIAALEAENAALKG

4H566-AA = target: T34, 4H566-AA; assay: two-hybrid library CCmax; conditions: mean of both orientations
T34 chain: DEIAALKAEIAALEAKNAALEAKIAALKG

P9mS = target: T35, P9mS; assay: two-hybrid library CCNG1
T35 chain: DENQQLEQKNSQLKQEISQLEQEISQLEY

P8mS = target: T36, P8mS; assay: two-hybrid library CCNG1
T36 chain: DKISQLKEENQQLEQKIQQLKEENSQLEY

P6mS = target: T37, P6mS; assay: two-hybrid library CCNG1
T37 chain: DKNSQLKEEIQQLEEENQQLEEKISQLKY

P7mS = target: T38, P7mS; assay: two-hybrid library CCNG1
T38 chain: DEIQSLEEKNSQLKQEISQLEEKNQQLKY

P5mS = target: T39, P5mS; assay: two-hybrid library CCNG1
T39 chain: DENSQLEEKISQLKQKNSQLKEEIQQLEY

4H3438-AA = target: T40, 4H3438-AA; assay: two-hybrid library CCmax
T40 chain: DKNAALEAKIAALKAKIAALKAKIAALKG

interaction score (4H953-AA): -1.62
interaction score (4H429-AA): 0.94
interaction score (4H3606-AA): -0.965
interaction score (4H568-AA): -0.907
interaction score (4H3354-AA; mean of both orientations): -1.66
interaction score (4H717-AA): -1.33
interaction score (4H3782-AA): -0.975
interaction score (4H3655-AA): -0.414
interaction score (4H993-AA): -0.58
interaction score (4H317-AA): -1.3
interaction score (4H687-AA): -0.855
interaction score (4H881-AA): -0.621
interaction score (4H967-AA): -1.38
interaction score (4H794-AA): -1.51
interaction score (4H678-AA): -1.37
interaction score (4H454-AA): -0.722
interaction score (4H3627-AA): 0.212
interaction score (4H4001-AA): -1.09
interaction score (4H883-AA): 0.194
interaction score (4H335-AA): 0.64
interaction score (4H605-AA): -1.38
interaction score (4H48-AA): 0.163
interaction score (4H918-AA): -1.44
interaction score (4H3343-AA): -1.15
interaction score (4H780-AA): -1.01
interaction score (4H906-AA): -1.29
interaction score (4H3427-AA): 2.07
interaction score (4H3921-AA): -1.01
interaction score (4H342-AA): -0.739
interaction score (4H3112-AA): -0.157
interaction score (4H797-AA): -1.25
interaction score (4H3855-AA): -0.622
interaction score (4H3844-AA): 0.837
interaction score (4H566-AA): -1.22
Binder: DKNAALEAEIAALEAKIAALEAKNAALKG [4H3112-AA]

interaction score (P9mS): -2.82
interaction score (P8mS): -1.17
interaction score (P6mS): -0.081
interaction score (P7mS): -1.25
interaction score (P5mS): -1.66
Binder: DENSQLEEKISQLKQKNSQLKEEIQQLEY [P5mS]

interaction score (4H953-AA): -1.6
interaction score (4H568-AA): -1.54
interaction score (4H3354-AA): 2.03
interaction score (4H717-AA): -1.69
interaction score (4H3782-AA): -1.79
interaction score (4H687-AA): -1.69
interaction score (4H967-AA): -1.42
interaction score (4H4001-AA): -1.64
interaction score (4H883-AA): -2
interaction score (4H918-AA): -1.56
interaction score (4H3427-AA): -1.79
interaction score (4H797-AA): -0.991
interaction score (4H3438-AA): -0.709
interaction score (4H3855-AA): -1.85
Binder: DKNAALEAKIAALEAENAALKAEIAALKG [4H3354-AA]

From publication PMC10397247
